Assay results reported in US9828589B2, “Acyltransferases and uses thereof in fatty acid production” (priority 2009, dated 2017).
Entries after “also recorded” stand apart in the source; their conditions may differ.

B1: LPAAT_13842 (Pi): acyltransferase from Phythophtora infestance, 424 amino acids, SEQ-ID 12, encoded by SEQ-ID 11 (protein)
chain: MSFATPAQVLQDVRFEERFAEIESRLPATLALAKEGSLAKRNQTKRKLYHDSELIRIELEERLNELGIESQWVTAPEMKEANEKLDAVRKQLKLDVLPASSSPLEKIYMVVRMLTMVLVLVGWLSCVTVLIPLKWLNPVLKKMGVKKNYLPMDIVSWGTAFMVCVTACTDMKAEGVENLLNLKDSVVCMFSHSSNLDGFIVNGSSPIAFKFAAKKSIFLVPFLGWSSRWGFDFVAIDRSHRKSALKSLKELAVSVNEHGNSVCISPEGTRSKDGLLQEFKKGPFYLREDTKKNVVPSIVFGAYELWPPGRLFSIPGHTLVRYLPEYKSDPNLNRNQNRLALRRIYLKAFTEDVPDYIGTRVSTNFILKNMFYHYLAWAITFKVTSWALTVISLVLYWLNITYGTFMLFSLVMMVAGEALMFFTC
modifications: Phythophtora infestance
B2: LPLAT_18374 (Pi): acyltransferase from Phythophtora infestance, 558 amino acids, SEQ-ID 8, encoded by SEQ-ID 7 (protein)
chain: MSTTALLQASTSPPPSREPEYAALEQLEPPLSHAIDMGVKVSPSESAAIAGGVYVTASSSCGASTIKHNPFTYTTPVDTYEKAKMTILCLLGVPFIRFVLLLCVGILLVIVSHLALIGYKPLDAHSGARPPLPRWRRIVGSPVPYLLRSLMLIVGYYWVPVKYPPNFNRHAMPRVIVSNHLTFFDGLYIFTLLSPSIAMKTDVANLPLISRIVQMIQPILIDRGTPEGRRRAMNDITSHVADPSKPPLLVFPEGTTSNQTVLCKFKVGSFVSGVPCQPVVLRYPYKHFDLSWPPGVSGLYLALRVLCQVYNRLEVEILPAYYPSERERKDPQLYAINVREVMAKALGVPTTNHAFEDVAMLMRVGDYATKHVVPLTDVGEVISLTALKRGDVDRLVGYFRRHDLDKDGHLSMQELRALFPNDDPVIVDQLFDLVDLDDSGLIDFRELCLALRALNPQNINEGDDALAKFAFRLYDLDNNGVIDASELEQLLRFQRNFYGVSEASVAAALRQAQAENTTGITYNRFEQLVLQNPEVLWYVRDKLEVLRGSMRESSLEIP
modifications: Phythophtora infestance

How the values were obtained:
[1] = test system: yeast mutant lacking LPAAT activity (knockout of the gene YDL052c); assay: LPAAT activity assay using yeast extracts (complementation, formation of phosphatidic acid); settings: complements knockout strain; TLC, FIG. 1
Method: Microsomal isolations of these transformants and the wildtype yeast strain BY4742 (lane marked “+”) where incubated with ^14C-labeled oleic acid and lysophosphatidic acid (LPA). Thin layer chromatography was performed to separate lipid classes.
The next day, expression of the acyltransferase polypeptides can be induced by transferring the cells to fresh media containing 2% galactose, for example by inoculating 100 ml of fresh culture to an optical density (measure at 600 nm) of OD600=0.1. Cells are harvested after 24 h incubation at 28° C. by centrifugation at 3000×g for 5 min and resuspended in 1 ml resuspention buffer (25 mM Tris/HCL pH 7.6) and disrupted using acid washed zirconium bead (200 μm average diameter) in a mill (Resch, Germany) by three minutes agitation at 300 rpm. The supernatant is transferred to a fresh tube and centrifuged at 3000×g for 5 min. The obtained supernatant is the crude extract. Protein content is measured according to Bradford (Bradford, M. M. (1976), Anal. Biochem. Bd. 72, pp. 248-254) with bovine serum albumin as standard. Assay mixtures contain 50 μg of protein, 10 μl of 10 mM [^14C]-glycerole-3-phosphate (2000 dpm/nmol), 10 μl of 1 mM 18:1-CoA in assay buffer (25 mM Tris/HCL pH 7.6, 0.5 mg/ml BSA) to give a total volume of 100 μl. Samples are incubated for 10 min at 30° C. The assays are terminated by extraction of the lipids into chloroform according to Blight and Dyer (Bligh, E. G. and Dyer, W. J. (1959), Can. J. Biochem. Physiol. 37, pp. 911-917). Lipids are separated on thin layer chromatography (TLC) silica 60 plates (Merck) using chloroform/methanol/acetic acid/water (90:15:10:3), and autoradiographic pictures are taken using an instant imager (Packard).

[2] = test system: [14C]-18:1-LPA and acyl-CoA; assay: Determination of substrate specificity for LPAAT (yeast microsomal fraction); type: biochemical, Saccharomyces cerevisea; settings: comparing FIG. 5 (10 mg/ml BSA) and FIG. 6 (0 mg/ml BSA)
Method: The specific activity of the enzyme LPAAT_13842 (Pi) using the substrates indicated at the x-axis is gives as the amount (in nmol) of substrate/product consumed/produced in one minute per mg total protein and was determined as described in example 5. The specific activities measured for microsomal extracts of yeast harboring an empty vector (pYES2.1 ev) is shown as control.
The specific activity of the enzymes BnLPAAT2 and AtLPAAT2-At3g57650 using the substrates indicated at the x-axis is gives as the amount (in nmol) of substrate/product consumed/produced in one minute per mg total protein and was determined as described in example 5. The specific activities measured for microsomal extracts of yeast harboring an empty vector (pYES2 ev) is shown as control.

[3] = test system: [14C]-18:1-Lysophosphatidlycholine (-LPC) and acyl-CoA; assay: Determination of substrate specificity for LPLAT, lysophosphatidylcholine as acyl-acceptor (LPCAT assay); type: biochemical, Saccharomyces cerevisea; settings: comparing FIG. 7 (10 mg/ml BSA) and FIG. 9 (0 mg/ml BSA)
Method: The specific activity of the enzymes LPLAT_18374 (Pi) and LPCAT_02075 (Pi) using the substrates indicated at the x-axis is gives as the amount (in nmol) of substrate/product consumed/produced in one minute per mg total protein and was determined as described in example 6. The specific activities measured for microsomal extracts of yeast harboring an empty vector (pYES2 ev) is shown as control.
The specific activity of the enzymes AtLPCAT1-At1g12640, AtLPCAT2-At1g63050, BnLPCAT1 and BnLPCAT2 using the substrates indicated at the x-axis is gives as the amount (in nmol) of substrate/product consumed/produced in one minute per mg total protein and was determined as described in example 6. The specific activities measured for microsomal extracts of yeast harboring an empty vector (pYES2 ev) is shown as control.

Molecule | LPAAT activity (formation of phosphatidic acid, PA) [1] | selectivity towards the length and the desaturation state of the substrate fatty acid [2] | selectivity towards the length and the desaturation state of the substrate fatty acid [3]
B1 | having LPAAT activity; also recorded: have LPAAT activity | not as selective as AtLPAAT2 and BnLPAAT2 | 
B2 | having LPAAT activity; also recorded: have LPAAT activity |  | not as selective as AtLPAAT1 or AtLPCAT2 or BnLPCAT1 or BnLPCAT2
